# From the supplement of paper PMC11246515
# ± gives the standard deviation of the averaged measurements.
# Assay: total protein half-life in vivo (active degradation + dilution); higher = more stable protein
# [1] = E. coli NCM3722 delta-clpP delta-lon delta-hslV, growth: N-lim chemostat, doubling time 6 h
# [2] = E. coli NCM3722 delta-clpP, growth: N-lim chemostat, doubling time 6 h
# [3] = E. coli NCM3722 delta-lon, growth: N-lim chemostat, doubling time 6 h
# [4] = E. coli NCM3722 delta-smpB, growth: N-lim chemostat, doubling time 6 h
# [5] = wild type E. coli NCM3722, growth: C-lim chemostat, doubling time 3 h
# [6] = wild type E. coli NCM3722, growth: C-lim chemostat, doubling time 6 h
# [7] = wild type E. coli NCM3722, growth: C-lim chemostat, doubling time 12 h
# [8] = wild type E. coli NCM3722, growth: N-lim chemostat, doubling time 6 h
# [9] = wild type E. coli NCM3722, growth: N-lim chemostat, doubling time 12 h
# [10] = wild type E. coli NCM3722, growth: P-lim chemostat, doubling time 6 h
# [11] = wild type E. coli NCM3722, growth: P-lim chemostat, doubling time 12 h
# [12] = E. coli NCM3722 delta-hslV, growth: N-lim chemostat, doubling time 6 h
Sequence,total protein half-life in vivo [1] [h],total protein half-life in vivo [2] [h],total protein half-life in vivo [3] [h],total protein half-life in vivo [4] [h],total protein half-life in vivo [5] [h],total protein half-life in vivo [6] [h],total protein half-life in vivo [7] [h],total protein half-life in vivo [8] [h],total protein half-life in vivo [9] [h],total protein half-life in vivo [10] [h],total protein half-life in vivo [11] [h],total protein half-life in vivo [12] [h]
MNDYKMTPGERRATWGLGTVFSLRMLGMFMVLPVLTTYGMALQGASEALIGIAIGIYGLTQAVFQIPFGLLSDRIGRKPLIVGGLAVFAAGSVIAALSDSIWGIILGRALQGSGAIAAAVMALLSDLTREQNRTKAMAFIGVSFGITFAIAMVLGPIITHKLGLHALFWMIAILATTGIALTIWVVPNSSTHVLNRESGMVKGSFSKVLAEPRLLKLNFGIMCLHILLMSTFVALPGQLADAGFPAAEHWKVYLATMLIAFGSVVPFIIYAEVKRKMKQVFVFCVGLIVVAEIVLWNAQTQFWQLVVGVQLFFVAFNLMEALLPSLISKESPAGYKGTAMGVYSTSQFLGVAIGGSLGGWINGMFDGQGVFLAGAMLAAVWLTVASTMKEPPYVSSLRIEIPANIAANEALKVRLLETEGIKEVLIAEEEHSAYVKIDSKVTNRFEIEQAIRQA,5.51,5.38 ± 0.66,5.73 ± 0.96,5.16 ± 0.38,3.17 ± 0.88,5.45 ± 0.11,11.2 ± 1.9,5.15 ± 0.25,10.1 ± 0.3,5.42 ± 0.72,8.82 ± 0.54,–
MYSSSRKRCPKTKWALKLLTAAFLAASPAAKSAVNNAYDALIIEARKGNTQPALSWFALKSALSNNQIADWLQIALWAGQDKQVITVYNRYRHQQLPARGYAAVAVAYRNLQQWQNSLTLWQKALSLEPQNKDYQRGQILTLADAGHYDTALVKLKQLNSGAPDKANLLAEAYIYKLAGRHQDELRAMTESLPENASTQQYPTEYVQALRNNQLAAAIDDANLTPDIRADIHAELVRLSFMPTRSESERYAIADRALAQYAALEILWHDNPDRTAQYQRIQVDHLGALLTRDRYKDVISHYQRLKKTGQIIPPWGQYWVASAYLKDHQPKKAQSIMTELFYHKETIAPDLSDEELADLFYSHLESENYPGALTVTQHTINTSPPFLRLMGTPTSIPNDTWLQGHSFLSTVAKYSNDLPQAEMTARELAYNAPGNQGLRIDYASVLQARGWPRAAENELKKAEVIEPRNINLEVEQAWTALTLQEWQQAAVLTHDVVEREPQDPGVVRLKRAVDVHNLAELRIAGSTGIDAEGPDSGKHDVDLTTIVYSPPLKDNWRGFAGFGYADGQFSEGKGIVRDWLAGVEWRSRNIWLEAEYAERVFNHEHKPGARLSGWYDFNDNWRIGSQLERLSHRVPLRAMKNGVTGNSAQAYVRWYQNERRKYGVSWAFTDFSDSNQRHEVSLEGQERIWSSPYLIVDFLPSLYYEQNTEHDTPYYNPIKTFDIVPAFEASHLLWRSYENSWEQIFSAGVGASWQKHYGTDVVTQLGYGQRISWNDVIDAGATLRWEKRPYDGDREHNLYVEFDMTFRF,–,–,–,–,–,–,> 16,–,–,–,–,–
MKQDLARIEQFLDALWLEKNLAENTLNAYRRDLSMMVEWLHHRGLTLATAQSDDLQALLAERLEGGYKATSSARLLSAVRRLFQYLYREKFREDDPSAHLASPKLPQRLPKDLSEAQVERLLQAPLIDQPLELRDKAMLEVLYATGLRVSELVGLTMSDISLRQGVVRVIGKGNKERLVPLGEEAVYWLETYLEHGRPWLLNGVSIDVLFPSQRAQQMTRQTFWHRIKHYAVLAGIDSEKLSPHVLRHAFATHLLNHGADLRVVQMLLGHSDLSTTQIYTHVATERLRQLHQQHHPRA [P0A8P8],5.75 ± 1.2,2.02 ± 0.045,4.89 ± 0.092,2.04 ± 0.034,1.74 ± 0.27,3.04 ± 0.085,4.08 ± 0.66,2.31 ± 0.2,3.34 ± 0.29,–,2.81,2.06
MSNPILSWRRVRALCVKETRQIVRDPSSWLIAVVIPLLLLFIFGYGINLDSSKLRVGILLEQRSEAALDFTHTMTGSPYIDATISDNRQELIAKMQAGKIRGLVVIPVDFAEQMERANATAPIQVITDGSEPNTANFVQGYVEGIWQIWQMQRAEDNGQTFEPLIDVQTRYWFNPAAISQHFIIPGAVTIIMTVIGAILTSLVVAREWERGTMEALLSTEITRTELLLCKLIPYYFLGMLAMLLCMLVSVFILGVPYRGSLLILFFISSLFLLSTLGMGLLISTITRNQFNAAQVALNAAFLPSIMLSGFIFQIDSMPAVIRAVTYIIPARYFVSTLQSLFLAGNIPVVLVVNVLFLIASAVMFIGLTWLKTKRRLD [P0AFQ2],6.67 ± 0.81,5.62,5.56,6.04 ± 0.15,–,5.36,12.8,6.36 ± 0.5,12.5 ± 3.1,–,12.6 ± 0.43,6.1
MSGKPAARQGDMTQYGGSIVQGSAGVRIGAPTGVACSVCPGGVTSGHPVNPLLGAKVLPGETDIALPGPLPFILSRTYSSYRTKTPAPVGSLGPGWKMPADIRLQLRDNTLILSDNGGRSLYFEHLFPGEDGYSRSESLWLVRGGVAKLDEGHRLAALWQALPEELRLSPHRYLATNSPQGPWWLLGWCERVPEADEVLPAPLPPYRVLTGLVDRFGRTQTFHREAAGEFSGEITGVTDGAWRHFRLVLTTQAQRAEEARQQAISGGTEPSAFPDTLPGYTEYGRDNGIRLSAVWLTHDPEYPENLPAAPLVRYGWTPRGELAVVYDRSGKQVRSFTYDDKYRGRMVAHRHTGRPEIRYRYDSDGRVTEQLNPAGLSYTYQYEKDRITITDSLDRREVLHTQGEAGLKRVVKKEHADGSVTQSQFDAVGRLRAQTDAAGRTTEYSPDVVTGLITRITTPDGRASAFYYNHHNQLTSATGPDGLELRREYDELGRLIQETAPDGDITRYRYDNPHSDLPCATEDATGSRKTMTWSRYGQLLSFTDCSGYVTRYDHDRFGQMTAVHREEGLSQYRAYDSRGQLIAVKDTQGHETRYEYNIAGDLTAVIAPDGSRNGTQYDAWGKAVRTTQGGLTRSMEYDAAGRVIRLTSENGSHTTFRYDVLDRLIQETGFDGRTQRYHHDLTGKLIRSEDEGLVTHWHYDEADRLTHRTVKGETAERWQYDERGWLTDISHISEGHRVAVHYRYDEKGRLTGERQTVHHPQTEALLWQHETRHAYNAQGLANRCIPDSLPAVEWLTYGSGYLAGMKLGDTPLVEYTRDRLHRETLRSFGRYELTTAYTPAGQLQSQHLNSLLSDRDYTWNDNGELIRISSPRQTRSYSYSTTGRLTGVHTTAANLDIRIPYATDPAGNRLPDPELHPDSTLSMWPDNRIARDAHYLYRYDRHGRLTEKTDLIPEGVIRTDDERTHRYHYDSQHRLVHYTRTQYEEPLVESRYLYDPLGRRVAKRVWRRERDLTGWMSLSRKPQVTWYGWDGDRLTTIQNDRSRIQTIYQPGSFTPLIRVETATGELAKTQRRSLADALQQSGGEDGGSVVFPPVLVQMLDRLESEILADRVSEESRRWLASCGLTVEQMQNQMDPVYTPARKIHLYHCDHRGLPLALISTEGATAWCAEYDEWGNLLNEENPHQLQQLIRLPGQQYDEESGLYYNRHRYYDPLQGRYITQDPIGLKGGWNLYGYQLNPISDIDPLGLSMWEDAKSGACTNGLCGTLSAMIGPDKFDSIDSTAYDALNKINSQSICEDKEFAGLICKDNSGRYFSTAPNRGERKGSYPFNSPCPNGTEKVSAYHTHGADSHGEYWDEIFSGKDEKIVKSKDNNIKSFYLGTPSGNFKAIDNHGKEITNRKGLPNVCRVHGNM,–,5.71,–,–,–,5.99 ± 0.77,15.1,5.88,12.5 ± 0.6,4.38,13.7,6.16 ± 0.29
MKNIRNFSIIAHIDHGKSTLSDRIIQICGGLSDREMEAQVLDSMDLERERGITIKAQSVTLDYKASDGETYQLNFIDTPGHVDFSYEVSRSLAACEGALLVVDAGQGVEAQTLANCYTAMEMDLEVVPVLNKIDLPAADPERVAEEIEDIVGIDATDAVRCSAKTGVGVQDVLERLVRDIPPPEGDPEGPLQALIIDSWFDNYLGVVSLIRIKNGTLRKGDKVKVMSTGQTYNADRLGIFTPKQVDRTELKCGEVGWLVCAIKDIHGAPVGDTLTLARNPAEKALPGFKKVKPQVYAGLFPVSSDDYEAFRDALGKLSLNDASLFYEPESSSALGFGFRCGFLGLLHMEIIQERLEREYDLDLITTAPTVVYEVETTSREVIYVDSPSKLPAVNNIYELREPIAECHMLLPQAYLGNVITLCVEKRGVQTNMVYHGNQVALTYEIPMAEVVLDFFDRLKSTSRGYASLDYNFKRFQASDMVRVDVLINGERVDALALITHRDNSQNRGRELVEKMKDLIPRQQFDIAIQAAIGTHIIARSTVKQLRKNVLAKCYGGDISRKKKLLQKQKEGKKRMKQIGNVELPQEAFLAILHVGKDNK,5.44 ± 0.33,5.46 ± 0.92,5.28 ± 0.43,4.79 ± 0.27,3.03 ± 0.18,5.49 ± 0.072,10.2 ± 0.72,4.754 ± 0.043,8.74 ± 0.49,5.851 ± 0.057,12.16 ± 0.1,5.24 ± 0.14
